Here are results for 1 molecule from patent US20170030918A1 (MOR NUCO ENTERPRISES, published 2017).

For one experiment, the target named is T1, serotransferrin (human, UniProt P02787 20-698).
T1 construct: Protein from patient sera on a denaturing 2-D blot; also called Serrotransferrin
Briefly: 2-D gel / western blot of patient sera. Here is the method: (§1) Serum was prepared from 5 ml of blood collected by venipuncture (with tourniquet) in standard B & D 13×100 (7 ml) vacutainer clot tubes (or equivalent) with or without hemoguard closure. After approximately 30 min at room temperature to allow for clotting, the clot was pelleted by centrifugation for 5 to 10 min at 2,500 to 3,000 rpm. Clot-free serum was decanted into a clean tube, labeled and analyzed fresh or stored frozen.
(§2) For western blot analysis, 30 μl of sera was added to 120 μl of Rehydration Buffer (7 M urea, 2 M thiourea, 2% (w/v) CHAPS [(3-[(3-cholamidopropyl)dimethylammonio]-1-propane-sulfonate), a nondenaturing zwitterionic detergent], 0.5% (w/v) ASB-14 (amidosulfobetaine-14, a zwitterionic detergent), 0.5% (v/v) ampholytes pH 3-10 (Bio-Rad), 0.5% (v/v) immobilized pH gradient (IPG) buffer pH 3-10 (Amersham-Pharmacia Biotech) and 65 mM dithiothreitol). The samples were quickly vortexed to mix sera with Rehydration Buffer. Four to six mg of protein were loaded for analysis. The samples were electrophoresed in the first dimension by using a commercial flatbed electrophoresis system (Ettan IPGphor 3, Amersham-Pharmacia Biotech) with IPG dry strips (Amersham). A linear pH range of 3 to 10 on 7 cm IPG strips was used. The IPG strips were rehydrated with the samples overnight at room temperature. […]
For orientation: Immunoblotting shows a protein as a band on a membrane.

The target in another experiment is T2, serum albumin (human, UniProt P02768 25-609).
T2 construct: Protein from patient sera on a denaturing 2-D blot; also called Ab
T2 sequence (P02768 25-609 limits assumed): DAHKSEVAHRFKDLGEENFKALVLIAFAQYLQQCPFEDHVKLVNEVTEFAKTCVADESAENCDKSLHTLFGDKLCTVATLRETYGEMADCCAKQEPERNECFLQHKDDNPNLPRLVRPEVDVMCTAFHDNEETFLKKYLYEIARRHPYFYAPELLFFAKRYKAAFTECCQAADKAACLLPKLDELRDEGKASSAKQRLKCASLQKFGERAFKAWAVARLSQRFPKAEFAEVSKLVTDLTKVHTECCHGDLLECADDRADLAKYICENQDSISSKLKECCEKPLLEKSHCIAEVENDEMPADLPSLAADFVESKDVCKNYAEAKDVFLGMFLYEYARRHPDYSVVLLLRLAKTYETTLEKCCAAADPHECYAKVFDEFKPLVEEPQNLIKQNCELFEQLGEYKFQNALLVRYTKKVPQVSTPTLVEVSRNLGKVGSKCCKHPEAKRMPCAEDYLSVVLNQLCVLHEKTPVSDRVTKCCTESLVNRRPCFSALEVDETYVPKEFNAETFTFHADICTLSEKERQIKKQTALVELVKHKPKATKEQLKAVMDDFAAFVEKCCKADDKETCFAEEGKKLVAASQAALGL
Briefly: 2-D gel electrophoresis / western blot of patient sera. Here is the method: as §1, §2

T1 sequence (P02787 20-698 limits assumed): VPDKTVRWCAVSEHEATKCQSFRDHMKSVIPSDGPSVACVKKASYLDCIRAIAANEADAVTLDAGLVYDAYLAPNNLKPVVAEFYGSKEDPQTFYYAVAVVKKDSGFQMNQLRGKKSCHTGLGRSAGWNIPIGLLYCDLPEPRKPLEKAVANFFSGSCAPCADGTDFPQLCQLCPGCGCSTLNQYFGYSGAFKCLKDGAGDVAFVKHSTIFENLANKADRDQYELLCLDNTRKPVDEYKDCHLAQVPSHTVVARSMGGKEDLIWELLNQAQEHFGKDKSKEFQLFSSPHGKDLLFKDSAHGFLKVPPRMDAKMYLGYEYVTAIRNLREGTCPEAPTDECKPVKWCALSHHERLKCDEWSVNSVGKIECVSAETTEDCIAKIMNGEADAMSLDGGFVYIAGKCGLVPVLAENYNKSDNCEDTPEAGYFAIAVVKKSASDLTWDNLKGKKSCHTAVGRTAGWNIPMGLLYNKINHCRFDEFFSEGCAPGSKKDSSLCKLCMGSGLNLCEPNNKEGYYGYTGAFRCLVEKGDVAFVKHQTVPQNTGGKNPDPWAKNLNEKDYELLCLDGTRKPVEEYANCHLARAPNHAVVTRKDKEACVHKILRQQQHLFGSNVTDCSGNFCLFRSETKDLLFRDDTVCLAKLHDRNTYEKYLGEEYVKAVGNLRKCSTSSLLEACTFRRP

B1: recombinant anti-ENOX2 single chain variable region antibody carrying an S-tag, ScFv(S) (scFv)
scFv: EVKLQESGTEVVKPGASVKLSCKASGYIFTSYDIDWVRQTPEQGLEWIGWIFPGEGSTEYNEKFKGRATLSVDKSSSTAYMELTRLTSEDSAVYFCARGDYYRRYFDLWGQGTTVTVSSGGGGSGGGGSGGGGSENVLTQSPAIMSASPGERVTMTCSASSSIRYIYWYQQKPGSSPRLLIYDTSNVAPGVPFRFSGSGSGTSYSLTINRMEAEDAATYYCQEWSGYPYTFGGGTKLELKAKETAAAKFERQHMDS
notes: Derived from the hybridoma that makes the ENOX2-specific monoclonal antibody; also called pan ENOX2 recombinant scFv antibody; recombinant anti-ECTO-NOX antibody (single chain variable region ScFv)
Consider B1, for which the binding result is “binds” with serotransferrin and “no binding” with serum albumin.
